Assay results from PMC9844859, “Appia: Simpler chromatography analysis and visualization” (PLOS ONE, 2023).

Biological target: T1, Human NEDD4-2-GFP (human, UniProt Q96PU5 1-975)
T1 construct: NEDD4-2 (E3 ubiquitin ligase NEDD4-like), human; also called NEDD4-2-GFP fusion protein; source: Sf9 cells (MOI of 5, 48 hours), purified (TALON resin, SEC)
T1 sequence (looked up): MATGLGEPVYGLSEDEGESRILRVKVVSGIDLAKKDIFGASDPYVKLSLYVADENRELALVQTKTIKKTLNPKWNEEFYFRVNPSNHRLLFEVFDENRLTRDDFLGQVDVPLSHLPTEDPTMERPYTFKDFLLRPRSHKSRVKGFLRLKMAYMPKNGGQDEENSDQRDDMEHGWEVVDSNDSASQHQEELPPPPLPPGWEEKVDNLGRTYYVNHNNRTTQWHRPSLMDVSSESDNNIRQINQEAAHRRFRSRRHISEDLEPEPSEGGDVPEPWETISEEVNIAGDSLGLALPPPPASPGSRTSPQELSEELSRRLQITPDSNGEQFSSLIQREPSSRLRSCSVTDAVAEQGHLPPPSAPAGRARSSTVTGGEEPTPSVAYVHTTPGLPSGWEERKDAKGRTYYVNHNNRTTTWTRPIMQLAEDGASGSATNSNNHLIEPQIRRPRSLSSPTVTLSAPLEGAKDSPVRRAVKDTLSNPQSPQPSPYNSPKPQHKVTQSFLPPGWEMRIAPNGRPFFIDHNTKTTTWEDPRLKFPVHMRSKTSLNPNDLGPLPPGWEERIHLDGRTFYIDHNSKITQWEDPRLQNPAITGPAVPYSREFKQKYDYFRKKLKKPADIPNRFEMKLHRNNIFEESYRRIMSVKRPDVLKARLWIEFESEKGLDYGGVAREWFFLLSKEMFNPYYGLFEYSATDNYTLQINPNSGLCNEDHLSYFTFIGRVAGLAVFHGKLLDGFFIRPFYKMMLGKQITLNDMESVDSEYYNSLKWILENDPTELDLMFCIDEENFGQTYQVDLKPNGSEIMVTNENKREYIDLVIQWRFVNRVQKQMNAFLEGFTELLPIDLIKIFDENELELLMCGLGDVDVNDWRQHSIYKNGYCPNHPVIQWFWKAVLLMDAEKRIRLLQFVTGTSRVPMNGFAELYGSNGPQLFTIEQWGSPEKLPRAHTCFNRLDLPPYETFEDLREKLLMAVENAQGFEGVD
Test: SEC; fluorescence-detection SEC (FSEC), GFP channel; NEDD4-2-GFP held at 71.2 nM, ENaC αβγ added in equal amounts, five-fold or ten-fold excess; Superose 6 Increase 10/300; TBS (20 mM Tris pH 7.5, 200 mM NaCl) + 0.5 mM DDM
Conditions: both partners purified

B1: triheteromeric αβγ Epithelial Sodium Channel (ENaC αβγ) (complex)
chain 1: MEGNKLEEQDSSPPQSTPGLMKGNKREEQGLGPEPAAPQQPTAEEEALIEFHRSYRELFEFFCNNTTIHGAIRLVCSQHNRMKTAFWAVLWLCTFGMMYWQFGLLFGEYFSYPVSLNINLNSDKLVFPAVTICTLNPYRYPEIKEELEELDRITEQTLFDLYKYSSFTTLVAGSRSRRDLRGTLPHPLQRLRVPPPPHGARRARSVASSLRDNNPQVDWKDWKIGFQLCNQNKSDCFYQTYSSGVDAVREWYRFHYINILSRLPETLPSLEEDTLGNFIFACRFNQVSCNQANYSHFHHPMYGNCYTFNDKNNSNLWMSSMPGINNGLSLMLRAEQNDFIPLLSTVTGARVMVHGQDEPAFMDDGGFNLRPGVETSISMRKETLDRLGGDYGDCTKNGSDVPVENLYPSKYTQQVCIHSCFQESMIKECGCAYIFYPRPQNVEYCDYRKHSSWGYCYYKLQVDFSSDHLGCFTKCRKPCSVTSYQLSAGYSRWPSVTSQEWVFQMLSRQNNYTVNNKRNGVAKVNIFFKELNYKTNSESPSVTMVTLLSNLGSQWSLWFGSSVLSVVEMAELVFDLLVIMFLMLLRRFRSRYWSPGRGGRGAQEVASTLASSPPSHFCPHPMSLSLSQPGPAPSPALTAPPPAYATLGPRPSPGGSAGASSSTCPLGGP
chain 2: MHVKKYLLKGLHRLQKGPGYTYKELLVWYCDNTNTHGPKRIICEGPKKKAMWFLLTLLFAALVCWQWGIFIRTYLSWEVSVSLSVGFKTMDFPAVTICNASPFKYSKIKHLLKDLDELMEAVLERILAPELSHANATRNLNFSIWNHTPLVLIDERNPHHPMVLDLFGDNHNGLTSSSASEKICNAHGCKMAMRLCSLNRTQCTFRNFTSATQALTEWYILQATNIFAQVPQQELVEMSYPGEQMILACLFGAEPCNYRNFTSIFYPHYGNCYIFNWGMTEKALPSANPGTEFGLKLILDIGQEDYVPFLASTAGVRLMLHEQRSYPFIRDEGIYAMSGTETSIGVLVDKLQRMGEPYSPCTVNGSEVPVQNFYSDYNTTYSIQACLRSCFQDHMIRNCNCGHYLYPLPRGEKYCNNRDFPDWAHCYSDLQMSVAQRETCIGMCKESCNDTQYKMTISMADWPSEASEDWIFHVLSQERDQSTNITLSRKGIVKLNIYFQEFNYRTIEESAANNIVWLLSNLGGQFGFWMGGSVLCLIEFGEIIIDFVWITIIKLVALAKSLRQRRAQASYAGPPPTVAELVEAHTNFGFQPDTAPRSPNTGPYPSEQALPIPGTPPPNYDSLRLQPLDVIESDSEGDAI
chain 3: MAPGEKIKAKIKKNLPVTGPQAPTIKELMRWYCLNTNTHGCRRIVVSRGRLRRLLWIGFTLTAVALILWQCALLVFSFYTVSVSIKVHFRKLDFPAVTICNINPYKYSTVRHLLADLEQETREALKSLYGFPESRKRREAESWNSVSEGKQPRFSHRIPLLIFDQDEKGKARDFFTGRKRKVGGSIIHKASNVMHIESKQVVGFQLCSNDTSDCATYTFSSGINAIQEWYKLHYMNIMAQVPLEKKINMSYSAEELLVTCFFDGVSCDARNFTLFHHPMHGNCYTFNNRENETILSTSMGGSEYGLQVILYINEEEYNPFLVSSTGAKVIIHRQDEYPFVEDVGTEIETAMVTSIGMHLTESFKLSEPYSQCTEDGSDVPIRNIYNAAYSLQICLHSCFQTKMVEKCGCAQYSQPLPPAANYCNYQQHPNWMYCYYQLHRAFVQEELGCQSVCKEACSFKEWTLTTSLAQWPSVVSEKWLLPVLTWDQGRQVNKKLNKTDLAKLLIFYKDLNQRSIMESPANSIEMLLSNFGGQLGLWMSCSVVCVIEIIEVFFIDFFSIIARRQWQKAKEWWAWKQAPPCPEAPRSPQGQDNPALDIDDDLPTFNSALHLPPALGTQVPGTPPPKYNTLRLERAFSNQLTDTQMLDEL
notes: ENaC alpha subunit; ENaC beta subunit; ENaC gamma subunit; The trypsin treatment may also cut the subunits themselves; also called αβγ ENaC; source: HEK293S GnTI- cells, baculovirus, purified (GFP nanobody resin, eluted with trypsin, SEC) as described for ENaC δβγ; copies: + +
percent of total NEDD4-2 bound at a 1:5 NEDD4-2:ENaC αβγ ratio: ~20%
